Results taken from publication PMC7851689, “Expanding the Enzyme Repertoire for Sugar Nucleotide Epimerization: the CDP-Tyvelose 2-Epimerase from Thermodesulfatator atlanticus for Glucose/Mannose Interconversion” (Applied and Environmental Microbiology, 2021).
Values belong to the molecule of their own block, whether it stands above or below them.

Columns and labels:
[1] = target: CDP-tyvelose 2-epimerase-like enzyme from Thermodesulfatator atlanticus (TaCPa2E) (Thermodesulfatator atlanticus); assay: SEC; gel filtration of the purified C-terminally His-tagged protein; conditions not shown (Fig. S3 and S4, supplemental material)
purified protein [2] = substrate: Nc1ccn([C@@H]2O[C@H](COP(=O)(O)OP(=O)(O)O[C@H]3O[C@H](CO)[C@@H](O)[C@H](O)[C@H]3O)[C@@H](O)[C@H]2O)c(=O)n1; assay: purified protein; settings: pH 7.5; 60.0 °C
purified protein [3] = substrate: Nc1ccn([C@@H]2O[C@H](COP(=O)(O)OP(=O)(O)O[C@H]3O[C@H](CO)[C@@H](O)[C@H](O)[C@@H]3O)[C@@H](O)[C@H]2O)c(=O)n1; assay: purified protein; settings: pH 7.5; 60.0 °C

stoichiometry N [1]: 2
Molecule: CDP-tyvelose 2-epimerase-like enzyme from Thermodesulfatator atlanticus (TaCPa2E)

B1: TaCPa2E (Thermodesulfatator atlanticus) (protein)
chain: MKYLITGGCGFLGSNLASEVLRKREELIIFDNLYRIGSYENLEWLKQQGDFRFVHGDIRNREDIEKVIKEEKPDVIFHLAGQVAMTTSIENPRLDFEVNALGTFNLLDAVRKYSPESIIIYSSTNKVYGDLGWVRYEETETRYIAPDFPNGFPESIPLDFHSPYGCSKGAADQYMLDFCRIYGIKTVVFRHSSMYGGRQFATYDQGWIGWFCLKAIEIKKGLLKEPFTIHGNGKQVRDVLYADDMIELYFKTIENIEKAKGEAFNIGGGMENSLSLLELFSLLEKELDIKMRYKKLPWRESDQKIFVADIRKAQKLIGWQPKVSKYNGIQKMLEWIKKLV
Km (purified protein [2]): 320 ± 20 µM
Km (purified protein [3]): 310 ± 10 µM
